The source of these data is patent US9835616B2, “In vitro method for assessing cytokine storm responses” (IMPERIAL INNOVATIONS LTD., priority 2013, dated 2017).

Common to all, as to type: cell-based, human
One data set deals with HUVEC. Description: HUVEC mono-culture, CXCL8 by ELISA. The settings on record: 10 μg/ml, 24 h, FIG. 3A. How it is done:
(§1) FIG. 3A-B HUVEC (A) and mixed donor BOEC (B) plus PBMC mono and co-culture bioassay data. PBMCs were added to HUVEC (A) or BOEC from different donors (B) after 24 h. For monocultures vehicle media was added. At the same time cultures were treated +/− vehicle, ANC28 (TGN1412-like superagonist) (10 μg/ml), Campath (10 μg/ml), Avastin (10 μg/ml) or Arzerra (10 μg/ml) for 24 h. Data are mean±SEM (A; n=3) (B; n=3). Statistical significance between treatments was determined by one-way ANOVA followed by Bonferroni's Multiple Comparison test (*p<0.05)
Plates were incubated at 37° C., 5% CO2.
In order to compare data from our same-donor assay with the current state-of-the-art assays^1,3,17, we ran parallel experiments using HUVECs as the detector endothelial cell model. PBMCs again released low levels of CXCL8 that was not increased by any of the biotherapetuics tested (FIG. 3A). HUVEC released relatively higher basal levels of CXCL8 that were not increased by anti-CD28 superagonist or Campath. […] The basis for these different results cannot be investigated further as HUVEC donors, unlike BOEC, cannot be easily traced and studied further. Similar results were found when PBMCs were added to BOECs from a different donor. Importantly, co-cultures of HUVEC and PBMC (from two donors) responded to TGN1412-like superagonist (ANC28) and Campath. This captures fully what is already know for this assay which, since the TGN1412 phase 1 trial, is as used as the gold standard assay to test biotherapeutics at the preclinical stage^1,17,18. […] This immune activation response in control or other conditions is likely due to the mixing of tissue from different donors and is a serious limitation for the HUVEC or other similar assays, but one that is totally avoided by our ‘same donor’ assay.
In general terms: ELISA stands for enzyme-linked immunosorbent assay.

Data set [1] relates to same donor BOEC: PBMC co-culture. Description: MSD 9-plex pro-inflammatory cytokine array on matched BOEC:PBMC co-cultures. The settings on record: 10 μg/ml, 24 h, FIG. 5. How it is done: FIG. 5A-C Cytokine release data from MSD analysis. Measurements were carried out using an MSD 10-spot 9-plex Pro-Inflammatory Assay (see methods). Data are mean±SEM (n=5 from matched 5 donors). Statistical testing was carried out between 5 donors by one-way ANOVA followed by Dunnett's multiple comparison test comparing responses with drug to respective control only (*p<0.05).
Plates were then incubated for 24 h.
To further analyse the cytokines released by matched BOEC and PBMC co-cultures as well as respective monocultures following stimulation with biologics an MSD (Meso Scale Discovery, USA) platform analysis was used. Human pro-inflammatory 9-Plex MULTISPOT 96-well-10 spot MSD plates were purchased from MSD (Gaithersburg, Md.) (Cat no. N05007A-1). Samples were diluted 1:10 in Lonza-EGM2 10% FBS/RPMI mix and added to the MSD plate. The immunoassay was carried out according to manufacturer's instructions. Plates were read using an MSC Sector Imager 2400 and analysed using MSD Discovery® Workbench software. Cytokines analysed were IL-2, CXCL8 (IL-8), IL-12q70, IL-1β, GM-CSF, IFNγ, IL-6, IL-10 and TNFα.

Data set [2] relates to co-cultures of HUVEC and PBMC. Kind of data set: HUVEC plus PBMC co-culture assay (two donors), CXCL8. As to conditions: HUVEC + PBMC co-culture from two donors, 10 μg/ml, 24 h, FIG. 3A. Here is the method: as §1
Supernatants were discarded from each tube.
In order to compare data from our same-donor assay with the current state-of-the-art assays^1,3,17, we ran parallel experiments using HUVECs as the detector endothelial cell model. PBMCs again released low levels of CXCL8 that was not increased by any of the biotherapetuics tested (FIG. 3A). HUVEC released relatively higher basal levels of CXCL8 that were not increased by anti-CD28 superagonist or Campath. […] The basis for these different results cannot be investigated further as HUVEC donors, unlike BOEC, cannot be easily traced and studied further. Similar results were found when PBMCs were added to BOECs from a different donor. Importantly, co-cultures of HUVEC and PBMC (from two donors) responded to TGN1412-like superagonist (ANC28) and Campath. […]

As to alemtuzumab [Campath], in the data set on HUVEC, the CXCL8 release entry was “not increased”. Moreover, in data set [1], the GM-CSF release entry was “tendency to elevate”, the IL-6 release entry is “tendency to elevate” and the IL-8 release entry is “tendency to elevate”. Also, the CXCL8 release entry in data set [2] was “responded”.

As for bevacizumab [Avastin], in the data set on HUVEC, the CXCL8 release entry is “tendency to respond”.

On to ofatumumab [Arzerra], for which the CXCL8 release entry in the data set on HUVEC is recorded as “tendency to respond”.
